# US20240368263A1 (PROMETHEUS BIOSCIENCES, published 2024)
# Substitutions are numbered along the chain they refer to.
# T1: human TL1A (endogenous, human whole blood assay) (human, UniProt O95150 1-251, limits assumed)
# T1 sequence (looked up): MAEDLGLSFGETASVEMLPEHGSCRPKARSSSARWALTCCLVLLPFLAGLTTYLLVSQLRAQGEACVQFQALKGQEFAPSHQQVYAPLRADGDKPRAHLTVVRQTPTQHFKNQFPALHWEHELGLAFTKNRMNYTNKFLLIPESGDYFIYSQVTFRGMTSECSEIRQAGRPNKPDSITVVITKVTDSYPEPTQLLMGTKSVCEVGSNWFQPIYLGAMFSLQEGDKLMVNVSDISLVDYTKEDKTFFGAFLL
# T2: Fas/TNFSF6 (R&D Systems, cat. no. 126-FL/CF) (UniProt P48023 134-281)
# T2 sequence (looked up): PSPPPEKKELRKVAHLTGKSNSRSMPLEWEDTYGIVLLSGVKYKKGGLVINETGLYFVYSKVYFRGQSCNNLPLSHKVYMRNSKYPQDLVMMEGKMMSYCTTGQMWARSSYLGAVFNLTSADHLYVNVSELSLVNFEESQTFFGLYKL
# T3: membrane-associated human TL1A on transfected HEK293 cells (human, UniProt O95150 1-251)
# T3 construct: whole, on cells
# T3 sequence (looked up): T1 sequence (looked up)
# T4: human TL1A (Fitzgerald, Prod. #30R-AT070) (human, UniProt O95150 72-251, limits assumed, biotinylated with EZ-Link Sulfo-NHS-LC-Biotin where used as soluble antigen)
# T4 construct: also called TNFSF15; biotinylated human TL1A
# T4 sequence (looked up): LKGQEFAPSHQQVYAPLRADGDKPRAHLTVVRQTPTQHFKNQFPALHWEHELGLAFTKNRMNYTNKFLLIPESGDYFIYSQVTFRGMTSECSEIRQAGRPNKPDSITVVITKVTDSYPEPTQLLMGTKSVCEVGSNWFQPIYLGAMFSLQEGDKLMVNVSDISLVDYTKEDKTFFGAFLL
# B1: clone 47, modified IgG1 / kappa (antibody)
# heavy: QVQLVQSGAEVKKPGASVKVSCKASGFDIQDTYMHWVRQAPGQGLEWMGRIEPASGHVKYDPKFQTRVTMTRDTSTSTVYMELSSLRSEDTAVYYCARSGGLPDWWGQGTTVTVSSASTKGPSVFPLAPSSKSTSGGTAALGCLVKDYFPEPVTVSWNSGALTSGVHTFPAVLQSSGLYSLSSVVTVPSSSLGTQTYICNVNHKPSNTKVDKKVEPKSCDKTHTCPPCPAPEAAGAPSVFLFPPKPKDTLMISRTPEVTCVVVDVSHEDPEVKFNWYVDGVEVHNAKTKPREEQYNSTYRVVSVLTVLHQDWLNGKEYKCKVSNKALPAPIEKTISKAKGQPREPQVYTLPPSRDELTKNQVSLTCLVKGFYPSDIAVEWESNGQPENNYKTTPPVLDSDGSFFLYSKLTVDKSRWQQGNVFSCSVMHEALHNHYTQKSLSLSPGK
# light: EIVLTQSPGTLSLSPGERATLSCRASSSVSYMYWYQQKPGQAPRLLIYATSNLASGIPDRFSGSGSGTDFTLTISRLEPEDFAVYYCQQWEGNPRTFGGGTKLEIKRTVAAPSVFIFPPSDEQLKSGTASVVCLLNNFYPREAKVQWKVDNALQSGNSQESVTEQDSKDSTYSLSSTLTLSKADYEKHKVYACEVTHQGLSSPVTKSFNRGEC
# B2: Clone 3-17L Fab (Fab, V domains shown)
# VH: QVQLVQSGAEVKKPGASVKVSCKASGFDIQDTYMHWVRQAPGQGLEWMGRIDPASGHLKYDPKFQGRVTITRDTSASTVYMELSSLRSEDTAVYYCARSGGLPDMWGQGTTVTVSS
# VL: EIVLTQSPGTLSLSPGERATLSCRASSSVSYMYWYQQKPGQAPRLLIYATSNLASGIPDRFSGSGSGTDFTLTISRLEPEDFAVYYCQQWQGNPRTFGGGTKLEIK
# notes: Fab
# B3: Clone 3-17L V-A Fab (Fab, V domains shown)
# VH: B2 VH with V79A
# VL: B2 VL
# notes: Fab
# B4: Clone 16 Fab (Fab, V domains shown)
# VH: B2 VH with L58V, Y60I, G66V, I70M, A76T
# VL: B2 VL
# notes: Fab; also called Clone 16L
# B5: Clone 17L-1 Fab (Fab, V domains shown)
# VH: B2 VH with G66R, I70M, A76T
# VL: B2 VL
# notes: Fab
# B6: Clone A1 Fab (Fab, V domains shown)
# VH: B2 VH with G66N, I70M, A76T, M105K
# VL: B2 VL with R24G, Q91E
# notes: Fab
# B7: Clone E1 Fab (Fab, V domains shown)
# VH: B2 VH with D52E, G66E, I70M, A76T, M105K
# VL: B2 VL with R24G, Q91E
# notes: Fab
# B8: Clone H2-2 Fab (Fab, V domains shown)
# VH: B2 VH with L58S, G66V, V68A, R72T, V79A, M81L, E82Q, M105F
# VL: B2 VL with Q91S
# notes: Fab; also called Clone 112-2
# B9: Clone H2-5 Fab (Fab, V domains shown)
# VH: B2 VH with L58Y, G66V, V68A, R72T, V79A, M81L, E82Q, M105F
# VL: B2 VL with Q91S
# notes: Fab; also called Clone 112-5
# B10: Clone H3-1 Fab (Fab, V domains shown)
# VH: B2 VH with L58T, V68A, R72T, V79A, M81L, E82Q, M105L
# VL: B2 VL with Q91S
# notes: Fab
# B11: Clone L3-13 Fab (Fab, V domains shown)
# VH: B2 VH with L58T, V68A, R72T, V79A, M81L, E82Q, M105F
# VL: B2 VL with Q91K
# notes: Fab
# B12: Clone X-V Fab (Fab, V domains shown)
# VH: B2 VH with L58T, G66V, V68A, R72T, V79A, M81L, E82Q, M105F
# VL: B2 VL with Q91S
# notes: Fab
# B13: Clone XL3-6 Fab (Fab, V domains shown)
# VH: B2 VH with L58T, V68A, R72T, V79A, M81L, E82Q, M105F
# VL: B2 VL with Q88S, Q91S
# notes: Fab
# B14: Clone XL3-10 Fab (Fab, V domains shown)
# VH: B2 VH with L58T, V68A, R72T, V79A, M81L, E82Q, M105F
# VL: B2 VL with Q91S, T96S
# notes: Fab
# B15: Clone XL3-15 Fab (Fab, V domains shown)
# VH: B2 VH with L58T, V68A, R72T, V79A, M81L, E82Q, M105F
# VL: B2 VL with Q91S, G92R
# notes: Fab
# Biological target: T1, human TL1A (endogenous, human whole …)
# Experiment: cell-based or functional assay
row,Binder,"IC50, inhibition of IFN-γ production, human whole blood assay"
1,B1,1.26 nM

# Biological target: TRAIL/TNFSF10 (R&D Systems, cat. no. 375-TL/CF) (UniProt P50591 114-281)
# Experiment: ELISA, antigen coated at 1 µg/ml, Fab titrated
# Description: (§1) Next, all the Fab variants were characterized for their selectivity for human TL1A relative to other TNFSF members TRAIL, LIGHT and Fas. […] The plate was washed 3 times with PBS-T and blocked with 100 μl of 1% BSA/PBS. The block was discarded and the Fab variants or control antibodies (Fas/TNFSF6, R&D Systems, cat. no. AF126; TRAIL/TNFSF10, R&D Systems, cat. no. AF375; LIGHT/TNFSF14, R&D Systems, cat. no. AF664) were titrated in 50 μl 1% BSA/PBS and incubated for 1 h at 25° C. The plate was washed 3 times with PBS-T and secondary HRP-conjugated antibody (diluted 5,000-fold in 1% BSA/PBS) was added for 1 h at 25° C. The plate was washed 3 times with PBS-T and developed.
# Sequence of TRAIL/TNFSF10 (R&D Systems, cat. no. 375-TL/CF) (P50591 114-281 limits assumed): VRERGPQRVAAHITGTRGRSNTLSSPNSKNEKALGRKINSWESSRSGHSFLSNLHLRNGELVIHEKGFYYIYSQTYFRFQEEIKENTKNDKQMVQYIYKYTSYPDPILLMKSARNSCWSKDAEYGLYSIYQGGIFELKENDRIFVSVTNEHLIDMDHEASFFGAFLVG
row,Binder,binding result
1,B2,no binding
2,B3,no binding
3,B4,no binding
4,B5,no binding
5,B6,no binding
6,B7,no binding
7,B8,no binding
8,B9,no binding
9,B10,no binding
10,B11,no binding
11,B12,no binding
12,B13,no binding
13,B14,no binding
14,B15,no binding

# Biological target: LIGHT/TNFSF14 (R&D Systems, cat. no. 664-LI/CF) (UniProt O43557 74-240)
# Experiment: ELISA, antigen coated at 1 µg/ml, Fab titrated
# Description: as §1
# Sequence of LIGHT/TNFSF14 (R&D Systems, cat. no. 664-LI/CF) (O43557 74-240 limits assumed): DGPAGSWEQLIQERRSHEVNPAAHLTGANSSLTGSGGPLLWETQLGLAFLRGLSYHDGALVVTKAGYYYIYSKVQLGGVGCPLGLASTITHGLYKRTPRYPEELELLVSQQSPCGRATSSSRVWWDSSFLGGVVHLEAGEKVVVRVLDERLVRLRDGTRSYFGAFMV
row,Binder,binding result
1,B2,no binding
2,B3,no binding
3,B4,no binding
4,B5,no binding
5,B6,no binding
6,B7,no binding
7,B8,no binding
8,B9,no binding
9,B10,no binding
10,B11,no binding
11,B12,no binding
12,B13,no binding
13,B14,no binding
14,B15,no binding

# Biological target: T2, Fas/TNFSF6 (R&D Systems, cat. no. …)
# Experiment: ELISA, antigen coated at 1 µg/ml, Fab titrated
# Description: as §1
row,Binder,binding result
1,B2,no binding
2,B3,no binding
3,B4,no binding
4,B5,no binding
5,B6,no binding
6,B7,no binding
7,B8,no binding
8,B9,no binding
9,B10,no binding
10,B11,no binding
11,B12,no binding
12,B13,no binding
13,B14,no binding
14,B15,no binding

# Biological target: T3, membrane-associated human TL1A on …
# Experiment: flow cytometry, HEK293 cells transfected with human TL1A
# Description: All the Fab variants were tested for binding to membrane-associated human TL1A. For these studies a HEK293 cell line that had been transfected with human TL1A was used. The 293 cells expressing membrane bound human TL1A were maintained in DMEM containing L-glutamine, glucose, sodium pyruvate, and phenol red (ThermoFisher cat #11995-065) plus 10% fetal bovine serum, 1X penicillin-streptomycin (Fisher cat #15140122) and 2 μg/ml puromycin (Gibco cat #A11138-03) in a 37° C. incubator with 5% CO2. Three days prior to the assay, a T-75 flask was seeded with 3×10⁶ cells so that the flask was 90-95% confluent on the day of the assay. The media was aspirated and the cell monolayer was gently washed with 5 ml PBS. Adherent cells were removed by repeatedly pipetting 10 ml ice cold 1% BSA/PBS against the monolayer. The cells were counted and 5×10⁵ were aliquoted for each sample to be analyzed. The cells were collected by centrifuging at 300× g at 4° C. for 5 minutes and the wash was discarded. The cells were resuspended in 100 μl Fab or IgG diluted in 1% BSA/PBS and placed on ice for 30 min. Next, the cells were washed with 1 ml 1% BSA/PBS and collected by centrifuging at 300× g at 4° C. for 5 min. The wash was discarded and 100 μl secondary goat F (ab′) 2 anti-human kappa FITC (Southern Biotech cat #2062-02) or goat F (ab′) 2 anti-human IgG PE (Southern Biotech cat #2043-09) conjugate, diluted 1:200 in BSA/PBS was added. Cells were placed on ice for 30 min. Finally, the cells were washed with 1 ml BSA/PBS, collected by centrifuging at 300× g at 4° C. for 5 min. The wash was removed and the cells were resuspended in 500 μl 1% BSA/PBS. One drop of Sytox AADvanced ReadyFlow Reagent (ThermoFisher cat #R37173) was added per sample and the samples were analyzed on the Attune NXT Flow Cytometer (ThermoFisher).
row,Binder,binding result
1,B2,binds
2,B3,binds
3,B4,binds
4,B5,binds
5,B6,binds
6,B7,binds
7,B8,binds
8,B9,binds
9,B10,binds
10,B11,binds
11,B12,binds
12,B13,binds
13,B14,binds
14,B15,binds

# Biological target: T4, human TL1A (Fitzgerald, Prod. …)
# Experiment: two ELISA formats: Fab on coated TL1A; captured Fab with biotinylated TL1A
# Description: Fabs with the CDRs shown in Tables 19 to 22 were tested for binding to human TL1A in multiple formats. Next, uniform (saturating) quantities of soluble Fab variants were captured on the surface of an ELISA plate and soluble, biotinylated human TL1A was titrated as shown in FIGS. 10 to 13.
row,Binder,binding result
1,B2,binds
2,B3,binds
3,B4,binds
4,B5,binds
5,B6,binds
6,B7,binds
7,B8,binds
8,B9,binds
9,B10,binds
10,B11,binds
11,B12,binds
12,B13,binds
13,B14,binds
14,B15,binds
